Experimental data reported in article PMC11417369, “DNA sequence and chromatin differentiate sequence-specific transcription factor binding in the human malaria parasite Plasmodium falciparum”.

T1: AP2-LT D1 (Plasmodium falciparum, UniProt Q8IAM1 2520-2577)
T1 sequence: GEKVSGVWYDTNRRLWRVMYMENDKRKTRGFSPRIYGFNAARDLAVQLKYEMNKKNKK


Target: T1, AP2-LT D1
Assay: gcPBM; about 25 ug protein; PBS, 1% milk, 0.2 mg/ml BSA, salmon testes DNA, 0.03% Triton X-100
Details: tags: N-terminal GST (pGEX-4T-1), kept; label: surface-attached array probe

Binder | binding signal
CACACA_site3715 (dsDNA) DNA 1: ATATATATATAATAAACACACAAATAGATATAACAT DNA 2: ATGTTATATCTATTTGTGTGTTTATTATATATATAT | 9.52 ln median PBM intensity, better of two orientations
CACACA_site1083 (dsDNA) DNA 1: CTACACAAGCATTAAACACACAAAAGGGATACTTTG DNA 2: CAAAGTATCCCTTTTGTGTGTTTAATGCTTGTGTAG | 9.43 ln median PBM intensity, better of two orientations
CACACA_site3695 (dsDNA) DNA 1: AAGCTTCATTAATATACACACATATATGCGTATATT DNA 2: AATATACGCATATATGTGTGTATATTAATGAAGCTT | 9.46 ln median PBM intensity, better of two orientations
CACACA_site8178 (dsDNA) DNA 1: TACATATAAACAATAACACACACCTAGGTACATGGA DNA 2: TCCATGTACCTAGGTGTGTGTTATTGTTTATATGTA | 9.55 ln median PBM intensity, better of two orientations
CACACA_site1192 (dsDNA) DNA 1: AAAAATACCTTATATATACACACTATGTTTTTCTTT DNA 2: AAAGAAAAACATAGTGTGTATATATAAGGTATTTTT | 9.31 ln median PBM intensity, better of two orientations
CACACA_site4122 (dsDNA) DNA 1: AAAACAAACACATTTACACACATAAATAAATCAATT DNA 2: AATTGATTTATTTATGTGTGTAAATGTGTTTGTTTT | 9.58 ln median PBM intensity, better of two orientations
CACACA_site5583 (dsDNA) DNA 1: ATTAAATACATTAACACACACACAAATAAATACATA DNA 2: TATGTATTTATTTGTGTGTGTGTTAATGTATTTAAT | 9.88 ln median PBM intensity, better of two orientations
CACACA_site4472 (dsDNA) DNA 1: TTTGAATCCTTATATACACACATTATATAATATTAT DNA 2: ATAATATTATATAATGTGTGTATATAAGGATTCAAA | 9.33 ln median PBM intensity, better of two orientations
CACACA_site8541 (dsDNA) DNA 1: AAGTACATACATAAAACACACACATATATATATATA DNA 2: TATATATATATATGTGTGTGTTTTATGTATGTACTT | 9.93 ln median PBM intensity, better of two orientations
CACACA_site6367 (dsDNA) DNA 1: AATATCTTAGTGGATACACACATATAAATGTGTATT DNA 2: AATACACATTTATATGTGTGTATCCACTAAGATATT | 9.32 ln median PBM intensity, better of two orientations
CACACA_site2459 (dsDNA) DNA 1: ACCTAAGAACTATTTACACACATATACAAAATATAT DNA 2: ATATATTTTGTATATGTGTGTAAATAGTTCTTAGGT | 9.34 ln median PBM intensity, better of two orientations
CACACA_site1293 (dsDNA) DNA 1: CACACCCACAAAAACACACACAAAGGTGTTCTTATA DNA 2: TATAAGAACACCTTTGTGTGTGTTTTTGTGGGTGTG | 9.62 ln median PBM intensity, better of two orientations
CACACA_site8242 (dsDNA) DNA 1: AATTTACACGTACGTGTACACACAAAAATATGTTTT DNA 2: AAAACATATTTTTGTGTGTACACGTACGTGTAAATT | 9.37 ln median PBM intensity, better of two orientations
CACACA_site699 (dsDNA) DNA 1: ATTTATATATAATATACACACATATAATCCACATAT DNA 2: ATATGTGGATTATATGTGTGTATATTATATATAAAT | 9.4 ln median PBM intensity, better of two orientations
CACACA_site656 (dsDNA) DNA 1: ACAATATCTAGATACACACACATATCTCTCAATCTA DNA 2: TAGATTGAGAGATATGTGTGTGTATCTAGATATTGT | 9.5 ln median PBM intensity, better of two orientations
CACACA_site1961 (dsDNA) DNA 1: ATTTTTTAACATATCATACACACAACCACTTTTTAT DNA 2: ATAAAAAGTGGTTGTGTGTATGATATGTTAAAAAAT | 9.38 ln median PBM intensity, better of two orientations

Binder | binding signal
CACACA_site960 (dsDNA) DNA 1: TGAATATTTACTTTAGCACACAATTTGTATTTGATT DNA 2: AATCAAATACAAATTGTGTGCTAAAGTAAATATTCA | 9.42 ln median PBM intensity, better of two orientations
CACACA_site2704 (dsDNA) DNA 1: GCCATTGTACCATCCACACACATATATATATGTATA DNA 2: TATACATATATATATGTGTGTGGATGGTACAATGGC | 9.64 ln median PBM intensity, better of two orientations
CACACA_site2254 (dsDNA) DNA 1: TTTTTTTTTATTATCATGCACACATTTTTTTTTTTT DNA 2: AAAAAAAAAAAATGTGTGCATGATAATAAAAAAAAA | 9.48 ln median PBM intensity, better of two orientations
CACACA_site126 (dsDNA) DNA 1: ACGATATTTTTGGTGACACACATATATATATATATA DNA 2: TATATATATATATATGTGTGTCACCAAAAATATCGT | 9.9 ln median PBM intensity, better of two orientations
CACACA_site4591 (dsDNA) DNA 1: CACATACAGATATATACACACAAATATATATACTCA DNA 2: TGAGTATATATATTTGTGTGTATATATCTGTATGTG | 9.49 ln median PBM intensity, better of two orientations
CACACA_site5230 (dsDNA) DNA 1: ATAATATCATCAAACGCACACATACATAAATATATT DNA 2: AATATATTTATGTATGTGTGCGTTTGATGATATTAT | 9.51 ln median PBM intensity, better of two orientations
CACACA_site5015 (dsDNA) DNA 1: ACCTCATAATATTTAACACACAAAATTATCTGTATG DNA 2: CATACAGATAATTTTGTGTGTTAAATATTATGAGGT | 9.39 ln median PBM intensity, better of two orientations
CACACA_site8658 (dsDNA) DNA 1: AACGAAAGAAAAAAAGCACACACAGTTTTGAGCAAT DNA 2: ATTGCTCAAAACTGTGTGTGCTTTTTTTCTTTCGTT | 9.6 ln median PBM intensity, better of two orientations
CACACA_site651 (dsDNA) DNA 1: ATACATATAGGATGCACACATAATTCAAATACAATA DNA 2: TATTGTATTTGAATTATGTGTGCATCCTATATGTAT | 9.54 ln median PBM intensity, better of two orientations
CACACA_site2004 (dsDNA) DNA 1: AAAATGTGCCCACGCGTACACACAAAAAAAGAAAAA DNA 2: TTTTTCTTTTTTTGTGTGTACGCGTGGGCACATTTT | 9.36 ln median PBM intensity, better of two orientations
CACACA_site3128 (dsDNA) DNA 1: CCACTAATAAATATTACACACATATATATATATATT DNA 2: AATATATATATATATGTGTGTAATATTTATTAGTGG | 9.47 ln median PBM intensity, better of two orientations
CACACA_site5706 (dsDNA) DNA 1: CTATTTTGGATGTGTACACATATATATATTTATATT DNA 2: AATATAAATATATATATGTGTACACATCCAAAATAG | 9.41 ln median PBM intensity, better of two orientations
CACACA_site3522 (dsDNA) DNA 1: ATATAAAATAGACACGCACACAAAAAAAAAAAAAAA DNA 2: TTTTTTTTTTTTTTTGTGTGCGTGTCTATTTTATAT | 9.59 ln median PBM intensity, better of two orientations
CACACA_site2284 (dsDNA) DNA 1: AAAAAAAAAAAAGGCACACAAACATATGTAGACATA DNA 2: TATGTCTACATATGTTTGTGTGCCTTTTTTTTTTTT | 9.56 ln median PBM intensity, better of two orientations
CACACA_site262 (dsDNA) DNA 1: ATTATGTATACATAAACACACATATATATAAAAAAA DNA 2: TTTTTTTATATATATGTGTGTTTATGTATACATAAT | 9.35 ln median PBM intensity, better of two orientations
CACACA_site1139 (dsDNA) DNA 1: TCTGTTAATATTTATACACACATATATATATATATA DNA 2: TATATATATATATATGTGTGTATAAATATTAACAGA | 9.45 ln median PBM intensity, better of two orientations
